In US20110293610A1 (published 2011):
Changes are numbered by the printed parent chain.

T1: TNF-beta (human, UniProt P01374 35-205)
T1 construct: also called TNFβ; Tumour Necrosis Factor-beta
T1 sequence (looked up): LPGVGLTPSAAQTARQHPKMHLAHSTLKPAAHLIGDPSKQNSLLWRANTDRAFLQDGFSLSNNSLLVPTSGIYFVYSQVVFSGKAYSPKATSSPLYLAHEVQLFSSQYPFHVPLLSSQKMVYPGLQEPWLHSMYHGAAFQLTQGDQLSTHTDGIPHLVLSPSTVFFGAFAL

B1: I051C04 (scFv)
scFv: QVQLQQSGAEVKKPGSSVKVSCRTSGGTFSNYGLSWVRQAPGQGLEWMGGVIPISSTIKYGQKFQDRLTIAADDLTNTTFMELSSLRPEDTAVYYCARAATTSQKHNKYAYYFYGMDVWGQGTMVTVSSGGGGSGGGGSGGGGSAQSALTQPASVSGSPGQSITISCTGTSSDVGGYNYVSWYQQHPGKAPKLMIYEVSNRPSGVSNRFSGSKSGNTASLTISGLQAEDEADYYCSSYTSSSTLVFGGGTKVTVLG
notes: also called 1051C04
B2: I022D01 (scFv)
scFv: EVNLRESGGGVDQPGRSLRLSCAASGFTFSSYGMHWVRQAPGKGLEWVAVISYDGSNKYYADSVKGRFTISRDNSKNTLYLQMNSLRAEDTAVYYCAKDGYYDILTGYSYYGMDVWGQGPMVAVSSGGGGSGGGGSGGGGSSELTQDPAVSVALGQTVRITCQGDSLRSYYTNWFQQKPGQAPLLVVYAKNKRPSGIPDRFSGSSSGNTASLTITGAQAEDEADYYCNSRDSSGNHVVFGGGTKLTVLG
B3: I050B11 (scFv)
scFv: QVQLVQSGVEVKKPGASVKVSCKASGYTFSNHGISWVRQAPGQGLEWVGWISGHDDSTKYAQKFQGRVTMTADTSTSTAYIELRSLKSDDTAVYYCARPFYDTLTSYVFQYFDHWGQGTMVTVSSGGGGSGGGGSGGGGSALETTLTQSPDTLSLSPGERATLSCRASQSVTRGWVAWYQQKPGQAPRLLMYGTSRRATGVPDRFSGSESGTDFTLTISRLEPEDFAVYYCQQYATSPRTFGQGTRLEIKR
B4: I031G10 (scFv)
scFv: QVQLVQSGAEVKKPGSSVKVSCRVSGGSFTDDSINWLRQAPGQGLEWVGGTIPLANRANYAQKFRDRVTITADELTATVFLELTSLRSDDTALYYCARSSPPKWYDALTGDSSYHSAMDVWGRGTLVTVSSGGGGSGGGGSGGGGSAQSVVTQPPSVSAAPGQKVTISCSGSTSNIGRNYVSWYQQLPGTATKLLIYDNNKRPSGIPDRFSGSKSGTSATLGITGLQTGDEADYYCGTWDSSLRIYVFGTGTKVTVLG
B5: I012A06 (scFv)
scFv: QVQLQESGPGVVKPSQTLSLTCTVSGVSISSDSYYWSWIRQPAGKGPEWIGRIYPTGSTNYNPSLKSRVTISVDTSKNQFSLQLTSVTAADTAVYYCARGRWDYDLLTGEHLGYYFDYWGRGTLVTVSSGGGGSGGGGSGGGGSALSSELTQDPAVSVALGQTVRITCQGDTLRNYYASWYQQKPGQAPVLVIHSRNNRPSGIPDRFSGSSSGTTASLTITGSQAEDEADYYCNSRDSSGNVIFGGGTKLTVLG
B6: I016F02 (scFv)
scFv: GVQLVESGAEVKKPGASVKVSCRTSGYTFTSNSFSWVRQAPGQGLEWMGGIIPIFGTANYAQKLQGRVTITADELTRTVYMDLSSLRSEDTAVYYCATGMGDHYGMDVWGRGTLVTVSSGGGGSGGGGSGGGGSQSVLTQPASVSGSPGQSITISCTGTSSDVGGYNYVSWYQQHPGKAPKLMIYEGSKRPSGVSNRFSGSKSGNTASLTISGLQAEDEADYYCSSYTTRSTRVFGGGTKLTVLG
B7: I029F11 (scFv)
scFv: QVQLVQSRAEVKRPGASVKVSCKASGYRFGSYGITWVRQAPGQGLEWMGWISTRYGDTKSAQKVEGRVTLTTDTSTSTAYMELRSLRSDDTAVYYCARDGSYDILTGYYIDNYMDVWGRGTLVTVSSGGGGSGGGGSGGGGSQSVLTQPPSASGTPGQRVTISCSGSSSNIGSNTVNWYQRLPGAAPQLLIYNNDQRPSGIPDRFSGSKSGTSGSLVISGLQSEDEADYYCASWDDSLNGRVFGGGTKLTVLG
B8: I031G08 (scFv)
scFv: QVQLVQSGAEVKKPGSSVKVSCRASGGSFIDDSINWLRQAPGQGLEWVGGTIPLANRANYAQKFRDRATITADELTATVFLELTSLRSDDTALYYCARSSPPKWYDALTGHSSYHSAMDVWGRGTLVTVSSGGGGSGGGGSGGGGSAQSVLTQPPSASGTPGQRVTISCSGTNSNIGGNTVNWYQQLPGTAPRLLIYSNNQRPSGVPDRFSGSKSGTSASLAISGLQSEDEADYYCAARDDRLNAHVVFGGGTKVTVLG
B9: I031C07 (scFv)
scFv: EVQLVQSGAEVKKPGSSVKVSCRASGGSFIDGSINWLRQAPGQGLEWVGGTIPLANRANYAQKFRDRVTITADELTAIVFLELTSLRSDDTALYYCARSSPPRWYDALTGDSSYHSAMDVWGQGTMVTVSSGGGGSGGGGSGGGGSAQSALTQPPSASGSPGQSVTISCSGTSSDIGDSNSVSWYQQHPGKAPKLLIYEVTKRPSGVPDRFAGSRSDNTASLTVSGLQTEDEADYYCSSSAARNHLVFGGGTKVTVLG
B10: I026C04-K (scFv)
scFv: QVQLVQSGAEVKKPGSSVKVSCRASGGSFNKHAISWVRQAPGRGLEWMGGILPMYGTANYAQKFQGRVTITADKLTNTVYMDLSRLRYEDTAVYYCARELGLSIVGATTGALDMWGKGTLVTVSSGGGGSGGGGSGGGGSAQSVLTQPPSVSAAPGQKVTISCSGSSSNIGNNYVSWYQQIPGTAPKLLIYENNKRPSGIPDRFSGSKSGASATLDITGLQTGDEADYYCGTWHSSQVVFGGGTKLTVLG
B11: I071B03 (scFv)
scFv: QVQLQQSGAEVKKPGASVKVSCKASGYTFTKYTMHWVRQAPGQGPEWMGWINGGSGDTKYSRKFQGRVTITKDTSASAAYMELSSLGSEDTALYYCARATYDPLTGYSFDGFDIWGQGTMVTVSSGGGGSGGGGSGGGGSQSVLTQPASVSGSPGQSITISCTGTSSDVGGYNYVSWYQQHPGKAPKLMIYEGSKRPSGVSNRFSGSKSGNTASLTISGLQAEDEADYYCSSYTTRSTRVFGGGTKLTVLD
B12: I068C06 (scFv)
scFv: EVQLVQSGAEVKKPGSSVKVSCKASGGTVSSRTISWVRQAPGQGLEWMGGSLPPSGAPIYAQKFQGRVAITADALTNTAFMELRSLKSDDTAVYYCARDQGRYLDLWGKGTLVTVSSGGGGSGGGGSGGGGSAQAVLTQPSSVSGAPGQRVTISCTGSRSNIGAGYDVHWYQQLPGTAPKLLIYGNSNRPSGVPDRFSGSKSGTSASLAITGLQADDEADYYCQSYDTSLRGLFGTGTKVTVLG
notes: also called I0068C06; I0068CO6
B13: I078D02 (scFv)
scFv: QVQLQQSGAEVKKPGASVKVSCKASGYTFTSYGISWVRQAPGQGLEWMGWISAYNGNTNYAQKLQGRVTMTTDTSTSTAYMELRSLRSDDTAVYYCARVYYDILTGYNLFFDYWGKGTMVTVSSGGGGSGGGGSGGGGSQSVLTQPASVSGSPGQSITISCTGTSSDVGGYNYVSWYQQHPGKAPKLMIYEGSKRPSGVSNRFSGSKSGNTASLTISGLQAEDEADYYCSSYTTRSTRVFGGGTKLTVLG
B14: I078H08 (scFv)
scFv: B13 scFv with Q5V, G8A, K116R, M119T
B15: I026C04 (scFv)
scFv: QVQLVQSGAEVKKPGSSVKVSCRASGGSFNHAISWVRQAPGRGLEWMGGILPMYGTANYAQKFQGRVTITADKLTNTVYMDLSRLRYEDTAVYYCARELGLSIVGATTGALDMWGKGTLVTVSSGGGGSGGGGSGGGGSAQSVLTQPPSVSAAPGQKVTISCSGSSSNIGNNYVSWYQQIPGTAPKLLIYENNKRPSGIPDRFSGSKSGASATLDITGLQTGDEADYYCGTWHSSQVVFGGGTKLTVLG
B16: I067F05 (scFv)
scFv: QVQLQQSGAEVKKPGSSVKVSCKASGGTFSSYAISWVRQAPGQGLEWMGRIIPIVNMANYAQKFQGRVTLTADKSTGTAYMELTSLRSEDTAVYYCARENYDSLTGYYGAFDIWGKGTMVTVSSGGGGSGGGGSGGGGSQSVLTQPASVSGSPGQSITISCTGTSSDVGGYNYVSWYQQHPGKAPKLMIYEGSKRPSGVSNRFSGSKSGNTASLTISGLQAEDEADYYCSSYTTRSTRVFGGGTKLTVLG

Target: T2, biotinylated B Lymphocyte Stimulator, soluble form (human, UniProt Q9Y275 134-285, biotinylated with NHS-biotin, molar ratio 20:1 biotin:protein)
T2 construct: also called bio-B Lymphocyte Stimulator; free B Lymphocyte Stimulator
Test: phage scFv, receptor binding inhibition on IM9 cells
Experimental: Fifty-five μl of each appropriate phage supernatant was added to each well and the final volume in each well was 65 μl. Plates were then incubated at room temperature for 30 minutes.
Plates were washed three times in PBST and three times in PBS, tapped dry and 50 μl of streptavidin-Delfia (Wallac) was added to each well at 1:1000 dilution in the Manufacturer's assay buffer. The plates were then incubated at room temperature for 1 hour and washed six times in Delfia wash solution (Wallac). After tapping the plates dry, 100 μl per well of Delfia enhancement solution (Wallac) was added. The plates were gently tapped to encourage micelle formation, incubated at room temperature for 10 minutes, and fluorescence read on a Wallac 1420 workstation at […].

Binder	binding result
B1	binds
B2	binds
B3	binds
B4	binds
B5	binds
B6	binds
B7	binds
B8	binds
B9	binds

Target: LIGHT (human, UniProt O43557 74-240, limits assumed)
Sequence (O43557 74-240 limits assumed): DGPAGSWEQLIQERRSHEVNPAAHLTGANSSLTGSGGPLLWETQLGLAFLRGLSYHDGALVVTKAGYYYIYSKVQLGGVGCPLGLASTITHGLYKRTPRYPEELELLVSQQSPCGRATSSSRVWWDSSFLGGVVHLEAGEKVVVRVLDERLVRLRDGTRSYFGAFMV
Test: phage ELISA

Binder	binding result
B10	no binding
B11	no binding
B12	no binding
B13	no binding
B14	no binding
B15	no binding
B16	no binding

Target: T3, TRAIL (human, UniProt P50591 114-281)
T3 construct: also called TNF-related apoptosis inducing ligand
T3 sequence (P50591 114-281 limits assumed): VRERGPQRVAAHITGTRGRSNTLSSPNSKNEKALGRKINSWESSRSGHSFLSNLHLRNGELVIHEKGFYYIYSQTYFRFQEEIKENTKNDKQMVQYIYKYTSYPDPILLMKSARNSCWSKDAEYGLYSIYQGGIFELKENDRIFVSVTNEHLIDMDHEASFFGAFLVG
Test: phage ELISA

Binder	binding result
B10	no binding
B11	no binding
B12	no binding
B13	no binding
B14	no binding
B15	no binding
B16	no binding

Target: T4, B Lymphocyte Stimulator, soluble form (human) (human, UniProt Q9Y275 134-285, biotinylated with NHS-biotin where used as biotinylated B Lymphocyte Stimulator)
T4 construct: Coated on plastic, captured on streptavidin plates, amine-coupled to a CM5 chip or free in solution, depending on the assay; also called BLyS; immobilized B Lymphocyte Stimulator
Test: phage ELISA

Binder	binding result
B11	binds
B13	binds
B14	binds
B15	binds
B16	binds

Target: T1, TNF-beta
Test: phage ELISA

Binder	binding result
B10	no binding
B11	no binding
B12	no binding
B13	no binding
B14	no binding
B15	no binding
B16	no binding

Target: T5, TNF-alpha (human, UniProt P01375 77-233)
T5 construct: also called TNFα; TNF-α
T5 sequence (P01375 77-233 limits assumed): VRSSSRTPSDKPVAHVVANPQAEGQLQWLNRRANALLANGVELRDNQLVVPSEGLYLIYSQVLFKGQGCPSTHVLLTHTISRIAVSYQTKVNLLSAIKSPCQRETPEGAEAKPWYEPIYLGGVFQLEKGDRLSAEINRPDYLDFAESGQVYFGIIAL
Test: phage ELISA

Binder	binding result
B10	no binding
B11	no binding
B12	no binding
B13	no binding
B14	no binding
B15	no binding
B16	no binding
